Results taken from paper doi:10.1101/2023.09.21.558797.

Target: His-tagged mouse Endophilin A1 SH3 domain (mouse) (UniProt Q62420)
Assay: ELISA; His-tagged mouse Endophilin A1 SH3 domain coated on a 96-well plate, overlaid with increasing concentrations of GST-tagged Dyn1-PRR peptides; two experiments of four replicates

His-tagged mouse Endophilin A1 SH3 domain (mouse), sequence (Q62420 290-349): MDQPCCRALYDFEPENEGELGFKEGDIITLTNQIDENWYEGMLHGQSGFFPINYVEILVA

fold lower affinity than xA (746–864): 3 fold
Substance: GST-Dyn1xB-PRR (full-length proline-rich region of Dynamin 1 splice variant xB, 746-851) (domain or fragment)
